# From US20260217779A1 (Chugai, published 2026)
# Positions count from the first letter of the chain named. Names may count otherwise.
# T1: human CXCR3 (hCXCR3) on Ba/F3 transfectant cells (human, UniProt P49682 1-368)
# T1 sequence: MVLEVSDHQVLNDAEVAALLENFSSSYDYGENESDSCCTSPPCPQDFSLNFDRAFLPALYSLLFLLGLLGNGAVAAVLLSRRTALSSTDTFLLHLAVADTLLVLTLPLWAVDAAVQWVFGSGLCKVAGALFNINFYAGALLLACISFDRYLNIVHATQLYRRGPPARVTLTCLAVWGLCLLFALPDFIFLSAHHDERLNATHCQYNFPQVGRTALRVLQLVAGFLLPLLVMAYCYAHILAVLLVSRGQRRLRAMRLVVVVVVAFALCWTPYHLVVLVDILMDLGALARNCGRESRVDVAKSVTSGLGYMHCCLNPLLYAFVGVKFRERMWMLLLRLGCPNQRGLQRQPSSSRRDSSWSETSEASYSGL
# B1: hCXCL11.0030-G1T4k.one//VHn-G1T4h.one.H435R (Fc fusion)
# chain 1: MFPMFKRGRCLCIGPGVKAVKVADIEKASIMYPSNNCDKIEVIITLKENKGQRCLNPKSKQARLIIKKVERKNFEPKSSDKTHTCPPCPAPELRRGPSVFLFPPKPKDTLMISRTPEVTCVVVDVSHEDPEVKFNWYVDGVEVHNAKTKPREEQYNSTYRVVSVLTVLHQDWLNGKEYKCKVSNKGLPSSIEKTISKAKGQPREPQVCTLPPSREEMTKNQVSLWCLVKGFYPSDIAVEWESNGQPENNYKTTPPVLDSDGSFFLYSKLTVDKSRWQEGNVFSCSVMHEALHNHYTQKSLSLSP
# chain 2: EPKSSDKTHTCPPCPAPELRRGPSVFLFPPKPKDTLMISRTPEVTCVVVDVSHEDPEVKFNWYVDGVEVHNAKTKPREEQYNSTYRVVSVLTVLHQDWLNGKEYKCKVSNKGLPSSIEKTISKAKGQPREPQVYTLPPSRCEMTKNQVSLSCAVKGFYPSDIAVEWESNGQPENNYKTTPPVLDSDGSFFLVSKLTVDKSRWQEGNVFSCSVMHEALHNRYTQKSLSLSP
# B2: hCXCL11.0046-G1T4k.one//VHn-G1T4h.one.H435R (Fc fusion)
# chain 1: B1 chain 1 with M1F, F2I
# chain 2: B1 chain 2
# B3: hCXCL11.0035-G1T4k.one//VHn-G1T4h.one.H435R (Fc fusion)
# chain 1: B1 chain 1 with M1S
# chain 2: B1 chain 2
# B4: hCXCL11.0038-G1T4k.one//VHn-G1T4h.one.H435R (Fc fusion)
# chain 1: B1 chain 1 with M1W
# chain 2: B1 chain 2
# B5: hCXCL11.0032-G1T4k.one//VHn-G1T4h.one.H435R (Fc fusion)
# chain 1: B1 chain 1 with M1P
# chain 2: B1 chain 2
# B6: hCXCL11.0031-G1T4k.one//VHn-G1T4h.one.H435R (Fc fusion)
# chain 1: B1 chain 1 with M1N
# chain 2: B1 chain 2
# B7: hCXCL11.0033-G1T4k.one//VHn-G1T4h.one.H435R (Fc fusion)
# chain 1: B1 chain 1 with M1Q
# chain 2: B1 chain 2
# B8: hCXCL11.0037-G1T4k.one//VHn-G1T4h.one.H435R (Fc fusion)
# chain 1: B1 chain 1 with M1V
# chain 2: B1 chain 2
# B9: hCXCL11.0036-G1T4k.one//VHn-G1T4h.one.H435R (Fc fusion)
# chain 1: B1 chain 1 with M1T
# chain 2: B1 chain 2
# B10: hCXCL11.0044-G1T4k.one//VHn-G1T4h.one.H435R (Fc fusion)
# chain 1: B1 chain 1 with M1F, F2G
# chain 2: B1 chain 2
# B11: hCXCL11.0040-G1T4k.one//VHn-G1T4h.one.H435R (Fc fusion)
# chain 1: B1 chain 1 with M1F, F2A
# chain 2: B1 chain 2
# B12: hCXCL11.0042-G1T4k.one//VHn-G1T4h.one.H435R (Fc fusion)
# chain 1: B1 chain 1 with M1F, F2E
# chain 2: B1 chain 2
# B13: hCXCL11.0041-G1T4k.one//VHn-G1T4h.one.H435R (Fc fusion)
# chain 1: B1 chain 1 with M1F, F2D
# chain 2: B1 chain 2
# B14: hCXCL11.0045-G1T4k.one//VHn-G1T4h.one.H435R (Fc fusion)
# chain 1: B1 chain 1 with M1F, F2H
# chain 2: B1 chain 2
# B15: hCXCL11.0039-G1T4k.one//VHn-G1T4h.one.H435R (Fc fusion)
# chain 1: B1 chain 1 with M1Y
# chain 2: B1 chain 2
# B16: hCXCL11.0034-G1T4k.one//VHn-G1T4h.one.H435R (Fc fusion)
# chain 1: B1 chain 1 with M1R
# chain 2: B1 chain 2
# B17: hCXCL11.0047-G1T4k.one//VHn-G1T4h.one.H435R (Fc fusion)
# chain 1: B1 chain 1 with M1F, F2K
# chain 2: B1 chain 2
# Biological target: T1, human CXCR3 (hCXCR3) on Ba/F3 …
# Assay: cell-based or functional assay
Activity retention rate at 33 nM [%],Activity retention rate at 100 nM [%],Activity retention rate at 300 nM [%],Luminescence value at 33 nM,Luminescence value at 100 nM,Luminescence value at 300 nM,Binder
114,98,86,8.75e+06,1.64e+07,1.06e+07,B1
10,36,65,760000,6.04e+06,8.05e+06,B2
161,95,42,1.23e+07,1.58e+07,5.23e+06,B3
60,83,99,4.63e+06,1.39e+07,1.23e+07,B4
33,68,105,2.5e+06,1.13e+07,1.31e+07,B5
165,90,51,1.27e+07,1.51e+07,6.39e+06,B6
199,92,28,1.53e+07,1.53e+07,3.46e+06,B7
111,111,73,8.51e+06,1.85e+07,9.07e+06,B8
140,105,53,1.07e+07,1.76e+07,6.59e+06,B9
68,76,72,5.24e+06,1.27e+07,8.9e+06,B10
81,78,41,6.26e+06,1.31e+07,5.05e+06,B11
61,67,58,4.7e+06,1.12e+07,7.23e+06,B12
25,56,42,1.92e+06,9.37e+06,5.16e+06,B13
61,75,67,4.67e+06,1.26e+07,8.3e+06,B14
102,86,75,7.86e+06,1.43e+07,9.32e+06,B15
19,45,77,1.49e+06,7.45e+06,9.63e+06,B16
5,22,52,391000,3.72e+06,6.48e+06,B17
